The record followed here is PMC5503513, “Tandem hnRNP A1 RNA recognition motifs act in concert to repress the splicing of survival motor neuron exon 7”.

One may read the Kd as a measure of binding affinity in units of concentration.

Data set [1] concerns the target T1, hnRNP A1 RRM1 F23A (UniProt P09651 2-97, F23A). Nature of the data set: ITC; second listed measurement; ITC: 10 mM NaPi pH 6.5, 10 mM 2-mercaptoethanol, 30 C, protein titrated into RNA; NMR: 10 mM NaPi pH 6.5, 1 mM DTT (303 K stated for UP1-R140A:ISS-N1-u25g). The settings on record: protein: recombinant; single strand.
In data set [2] the target is T2, hnRNP A1 RRM2 R140A (UniProt P09651 95-196, R140A). Nature of the data set: ITC; 10 mM sodium phosphate pH 6.5, 10 mM 2-mercaptoethanol, no added salt, 30 C; RNA 5-10 uM in the cell; 1:1 fit. The conditions noted are these: none in PDB 5MPL.
Data set [3] addresses hnRNP A1 UP1 r1R2 (Homo sapiens, UniProt P09651 2-196, F17A;F59A). The description is as above. The settings on record: extra N-terminal Gly-Gly in PDB 2LYV (left out).
Data set [4] deals with T3, hnRNP A1 RRM1 D42A (UniProt P09651 2-97, D42A). The data set is described as above. The conditions noted are these: one extra N-terminal Ala in PDB 5MPG (left out).
Data set [5] has as its target T4, hnRNP A1 RRM1 R92A (UniProt P09651 2-97, R92A). The description is as above. The conditions noted are these: one extra N-terminal Ala in PDB 5MPG (left out).
For data set [6], the target named is hnRNP A1 UP1 R1r2 (Homo sapiens, UniProt P09651 2-196, F108A;F150A). The data set is described as above. The conditions noted are these: extra N-terminal Gly-Gly in PDB 2LYV (left out).
In data set [7] the target is T1, hnRNP A1 RRM1 F23A. Described as above. The settings on record: one extra N-terminal Ala in PDB 5MPG (left out).
For a further data set, the target named is hnRNP A1 RRM1 R55A (UniProt P09651 2-97, R55A). The data set is described as above. The conditions noted are these: one extra N-terminal Ala in PDB 5MPG (left out).
The target of data set [8] is T4, hnRNP A1 RRM1 R92A. Kind of data set: ITC; range, no saturation; ITC: 10 mM NaPi pH 6.5, 10 mM 2-mercaptoethanol, 30 C, protein titrated into RNA; NMR: 10 mM NaPi pH 6.5, 1 mM DTT (303 K stated for UP1-R140A:ISS-N1-u25g). The settings on record: protein: recombinant; single strand.
The target in data set [9] is T2, hnRNP A1 RRM2 R140A. Nature of the data set: ITC; ITC: 10 mM NaPi pH 6.5, 10 mM 2-mercaptoethanol, 30 C, protein titrated into RNA; NMR: 10 mM NaPi pH 6.5, 1 mM DTT (303 K stated for UP1-R140A:ISS-N1-u25g). The conditions noted are these: protein: recombinant; single strand.
Data set [10] has as its target T5, hnRNP A1 RRM1 (UniProt P09651 2-97). The description is as above. The settings on record: protein: recombinant; single strand.
The target in data set [11] is T3, hnRNP A1 RRM1 D42A. The description is as above. The settings on record: protein: recombinant; single strand.
Data set [12] deals with T6, hnRNP A1 RRM2 E176Q (UniProt P09651 95-196, E176Q). The data set is described as above. The settings on record: protein: recombinant; single strand.
In data set [13] the target is UP1 r1R2 (UniProt P09651 1-196, F17A;F59A). The data set is described as above. The settings on record: protein: recombinant; single strand.
The target in the next data set is hnRNP A1 RRM2 (UniProt P09651 95-196). The data set is described as above. The conditions noted are these: protein: recombinant; single strand.
Data set [14] concerns the target UP1 R1r2 (UniProt P09651 1-196, F108A;F150A). Described as above. The settings on record: protein: recombinant; single strand.
Data set [15] addresses T1, hnRNP A1 RRM1 F23A. The description is as above. The conditions noted are these: protein: recombinant; single strand.
Data set [16] has as its target T5, hnRNP A1 RRM1. Nature of the data set: ITC; first listed measurement; ITC: 10 mM NaPi pH 6.5, 10 mM 2-mercaptoethanol, 30 C, protein titrated into RNA; NMR: 10 mM NaPi pH 6.5, 1 mM DTT (303 K stated for UP1-R140A:ISS-N1-u25g). The conditions noted are these: protein: recombinant; single strand. On the technique in general: Isothermal titration calorimetry measures the heat released or taken up as one component is titrated into another.

The target in data set [17] is T7, hnRNP A1 RRM2 M186A (UniProt P09651 95-196, M186A). Nature of the data set: ITC; 10 mM sodium phosphate pH 6.5, 10 mM 2-mercaptoethanol, no added salt, 30 C; RNA 5-10 uM in the cell; 1:1 fit. The settings on record: none in PDB 5MPL.
Data set [18] addresses T5, hnRNP A1 RRM1. The description is as above. The conditions noted are these: one extra N-terminal Ala in PDB 5MPG (left out).
For data set [19], the target named is T6, hnRNP A1 RRM2 E176Q. The data set is described as above. The settings on record: none in PDB 5MPL.
The target of data set [20] is T5, hnRNP A1 RRM1. Nature of the data set: ITC; range, no saturation; ITC: 10 mM NaPi pH 6.5, 10 mM 2-mercaptoethanol, 30 C, protein titrated into RNA; NMR: 10 mM NaPi pH 6.5, 1 mM DTT (303 K stated for UP1-R140A:ISS-N1-u25g). The conditions noted are these: protein: recombinant; single strand.
The target in data set [21] is T3, hnRNP A1 RRM1 D42A. The data set is described as above. The settings on record: protein: recombinant; single strand.
The target in the next data set is hnRNP A1 RRM2 Y167F (UniProt P09651 95-196, Y167F). Nature of the data set: ITC; ITC: 10 mM NaPi pH 6.5, 10 mM 2-mercaptoethanol, 30 C, protein titrated into RNA; NMR: 10 mM NaPi pH 6.5, 1 mM DTT (303 K stated for UP1-R140A:ISS-N1-u25g). The settings on record: protein: recombinant; single strand.
Data set [22] has as its target T7, hnRNP A1 RRM2 M186A. Described as above. The settings on record: protein: recombinant; single strand.

T3 sequence (P09651 2-97 D42A): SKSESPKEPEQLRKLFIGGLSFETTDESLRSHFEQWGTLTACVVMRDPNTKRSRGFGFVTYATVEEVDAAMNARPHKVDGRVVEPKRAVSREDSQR
T2 sequence (P09651 95-196 R140A): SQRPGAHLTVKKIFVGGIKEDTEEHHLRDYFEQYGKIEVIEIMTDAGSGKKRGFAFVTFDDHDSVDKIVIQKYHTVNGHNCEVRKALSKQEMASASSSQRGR
T4 sequence (P09651 2-97 R92A): as the sequence (P09651 2-97 D42A) above, with A41D, R91A counted along it
T5 sequence (P09651 2-97): as the sequence (P09651 2-97 D42A) above, with A41D counted along it
T6 sequence (P09651 95-196 E176Q): as the sequence (P09651 95-196 R140A) above, with A46R, E82Q counted along it
T1 sequence (P09651 2-97 F23A): as the sequence (P09651 2-97 D42A) above, with F22A, A41D counted along it
Sequence of hnRNP A1 UP1 R1r2 (P09651 2-196 F108A/F150A): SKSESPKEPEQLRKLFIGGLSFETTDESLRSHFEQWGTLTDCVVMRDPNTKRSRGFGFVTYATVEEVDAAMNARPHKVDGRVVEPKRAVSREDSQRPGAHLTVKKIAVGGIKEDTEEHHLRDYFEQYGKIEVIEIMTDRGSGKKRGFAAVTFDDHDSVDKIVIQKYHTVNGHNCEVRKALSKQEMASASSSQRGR
Sequence of UP1 r1R2 (P09651 1-196 F17A/F59A): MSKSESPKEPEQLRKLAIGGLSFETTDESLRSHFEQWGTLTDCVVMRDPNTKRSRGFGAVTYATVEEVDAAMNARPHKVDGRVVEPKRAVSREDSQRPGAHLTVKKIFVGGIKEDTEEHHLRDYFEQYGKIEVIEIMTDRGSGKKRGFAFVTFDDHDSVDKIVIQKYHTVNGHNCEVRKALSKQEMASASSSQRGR
Sequence of hnRNP A1 RRM2 (P09651 95-196): as the sequence (P09651 95-196 R140A) above, with A46R counted along it
Sequence of hnRNP A1 UP1 r1R2 (P09651 2-196 F17A/F59A): as the sequence (P09651 2-196 F108A/F150A) above, with F16A, F58A, A107F, A149F counted along it
T7 sequence (P09651 95-196 M186A): as the sequence (P09651 95-196 R140A) above, with A46R, M92A counted along it
Sequence of hnRNP A1 RRM2 Y167F (P09651 95-196 Y167F): as the sequence (P09651 95-196 R140A) above, with A46R, Y73F counted along it
Sequence of UP1 R1r2 (P09651 1-196 F108A/F150A): as the sequence (P09651 1-196 F17A/F59A) above, with A17F, A59F, F108A, F150A counted along it
Sequence of hnRNP A1 RRM1 R55A (P09651 2-97 R55A): as the sequence (P09651 2-97 D42A) above, with A41D, R54A counted along it

With UUAGGUC (ssRNA), the Kd with hnRNP A1 RRM1 F23A [1] is 193 ± 11 nM; with hnRNP A1 RRM2 R140A [2], 195 ± 12 nM; with hnRNP A1 UP1 r1R2 [3], 56.2 ± 4 nM; with hnRNP A1 RRM1 D42A [4] it was 787 ± 42 nM; in the data set with hnRNP A1 RRM1 R92A [5] it was ~2850 nM; with hnRNP A1 UP1 R1r2 [6] it was 45 ± 2 nM. Further, the Kd with hnRNP A1 RRM1 F23A [7] was 209 ± 13 nM; with hnRNP A1 RRM1 R55A, > 10000 nM; with hnRNP A1 RRM1 R92A [8], ~2240 nM; with hnRNP A1 RRM2 R140A [9] it was 195 ± 12 nM; in the data set with hnRNP A1 RRM1 [10] it was 288 ± 16 nM; with hnRNP A1 RRM1 D42A [11] it was 787 ± 42 nM. Also, the dissociation constant (Kd) with hnRNP A1 RRM2 E176Q [12] came out at 116 ± 39 nM; in the data set with UP1 r1R2 [13], 56 ± 4 nM; with hnRNP A1 RRM2, 64 ± 8 nM; with UP1 R1r2 [14], 47 ± 2 nM; with hnRNP A1 RRM1 F23A [15] it was 225 ± 13 nM; in the data set with hnRNP A1 RRM1 [16], 292 ± 17 nM.

As to UUAGUU (ssRNA), the Kd with hnRNP A1 RRM2 R140A [2] was 433 ± 26 nM; with hnRNP A1 RRM2 M186A [17] it was 253 ± 15 nM; with hnRNP A1 UP1 r1R2 [3], 142 ± 9 nM; with hnRNP A1 RRM1 [18], ~5990 nM; in the data set with hnRNP A1 RRM1 D42A [4], ~2690 nM; with hnRNP A1 RRM2 E176Q [19], 286 ± 12 nM. The Kd with hnRNP A1 RRM1 R92A [5] was > 10000 nM; with hnRNP A1 UP1 R1r2 [6] it was 105 ± 8 nM; with hnRNP A1 RRM1 [20], ~5200 nM; with hnRNP A1 RRM1 D42A [21], ~2240 nM; in the data set with hnRNP A1 RRM2 R140A [9], 433 ± 26 nM; with hnRNP A1 RRM2 Y167F, 118 ± 9 nM. For the same molecule, the Kd stood at 253 ± 15 nM in the data set with hnRNP A1 RRM2 M186A [22], 286 ± 12 nM with hnRNP A1 RRM2 E176Q [12], 142 ± 9 nM with UP1 r1R2 [13] and 125 ± 9 nM in the data set with hnRNP A1 RRM2.
